Data from PMC6455120 (2019).

Molecular target: T1, MERS-CoV spike ectodomain ECD (Middle East respiratory …, UniProt K9N5Q8)
T1 chain: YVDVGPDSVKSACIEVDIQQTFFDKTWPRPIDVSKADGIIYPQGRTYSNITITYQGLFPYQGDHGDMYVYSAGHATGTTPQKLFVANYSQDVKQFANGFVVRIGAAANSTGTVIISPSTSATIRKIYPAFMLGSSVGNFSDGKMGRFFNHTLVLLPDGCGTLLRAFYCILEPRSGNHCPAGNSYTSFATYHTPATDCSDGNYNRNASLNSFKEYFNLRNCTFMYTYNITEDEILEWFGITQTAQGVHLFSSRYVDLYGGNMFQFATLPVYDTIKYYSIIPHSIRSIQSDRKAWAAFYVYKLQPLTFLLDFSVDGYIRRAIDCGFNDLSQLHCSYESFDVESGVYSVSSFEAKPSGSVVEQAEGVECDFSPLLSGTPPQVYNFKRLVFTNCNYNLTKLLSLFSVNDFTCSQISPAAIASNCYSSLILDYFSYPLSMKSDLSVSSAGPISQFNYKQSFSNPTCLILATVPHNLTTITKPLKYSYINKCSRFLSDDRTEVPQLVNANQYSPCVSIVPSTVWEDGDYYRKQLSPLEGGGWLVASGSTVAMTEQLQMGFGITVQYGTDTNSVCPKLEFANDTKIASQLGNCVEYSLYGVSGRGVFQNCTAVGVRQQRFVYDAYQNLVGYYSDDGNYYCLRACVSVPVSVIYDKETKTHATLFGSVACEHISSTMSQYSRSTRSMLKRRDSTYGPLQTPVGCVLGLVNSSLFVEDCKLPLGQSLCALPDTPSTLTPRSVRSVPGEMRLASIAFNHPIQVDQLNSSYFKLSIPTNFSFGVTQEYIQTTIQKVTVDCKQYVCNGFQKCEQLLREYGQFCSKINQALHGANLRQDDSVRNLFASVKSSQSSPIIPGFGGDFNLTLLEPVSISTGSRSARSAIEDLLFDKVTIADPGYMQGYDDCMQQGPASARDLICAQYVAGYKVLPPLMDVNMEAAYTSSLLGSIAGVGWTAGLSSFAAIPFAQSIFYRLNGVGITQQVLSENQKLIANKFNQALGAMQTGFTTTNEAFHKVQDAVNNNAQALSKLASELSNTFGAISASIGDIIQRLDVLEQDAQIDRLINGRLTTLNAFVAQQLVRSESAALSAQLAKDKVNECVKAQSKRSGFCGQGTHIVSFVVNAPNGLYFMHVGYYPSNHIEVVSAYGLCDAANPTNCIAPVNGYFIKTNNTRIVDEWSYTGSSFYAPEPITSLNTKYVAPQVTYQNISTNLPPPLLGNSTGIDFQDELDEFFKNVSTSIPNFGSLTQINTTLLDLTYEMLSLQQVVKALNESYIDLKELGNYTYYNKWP

B1: DPP4 (protein)
chain: SRKTYTLTDYLKNTYRLKLYSLRWISDHEYLYKQENNILVFNAEYGNSSVFLENSTFDEFGHSINDYSISPDGQFILLEYNYVKQWRHSYTASYDIYDLNKRQLITEERIPNNTQWVTWSPVGHKLAYVWNNDIYVKIEPNLPSYRITWTGKEDIIYNGITDWVYEEEVFSAYSALWWSPNGTFLAYAQFNDTEVPLIEYSFYSDESLQYPKTVRVPYPKAGAVNPTVKFFVVNTDSLSSVTNATSIQITAPASMLIGDHYLCDVTWATQERISLQWLRRIQNYSVMDICDYDESSGRWNCLVARQHIEMSTTGWVGRFRPSEPHFTLDGNSFYKIISNEEGYRHICYFQIDKKDCTFITKGTWEVIGIEALTSDYLYYISNEYKGMPGGRNLYKIQLSDYTKVTCLSCELNPERCQYYSVSFSKEAKYYQLRCSGPGLPLYTLHSSVNDKGLRVLEDNSALDKMLQNVQMPSKKLDFIILNETKFWYQMILPPHFDKSKKYPLLLDVYAGPCSQKADTVFRLNWATYLASTENIIVASFDGRGSGYQGDKIMHAINRRLGTFEVEDQIEAARQFSKMGFVDNKRIAIWGWSYGGYVTSMVLGSGSGVFKCGIAVAPVSRWEYYDSVYTERYMGLPTPEDNLDHYRNSTVMSRAENFKQVEYLLIHGTADDNVHFQQSAQISKALVDVGVDFQAMWYTDEDHGIASSTAHQHIYTHMSHFIKQCFSLP
- Kd: 3.42 nM
